In the nanobody polyreactivity screen of Harvey et al. (2022):

assay: yeast display, Sf9 membrane polyspecificity reagent, FACS + sequencing; frameworks hold sequencing errors
Procedure, shortened: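 Sorting gates, low and high (top ~1%), were placed on anti-HA fluorescence to track expression and on streptavidin fluorescence to track reagent binding. A clone's polyreactivity label is taken from the gate it came out of. The reagent was 10% biotinylated, detergent-solubilized Sf9 membrane, applied for 1 hour at 4 °C to galactose-induced yeast display cells.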

| Sequence | polyreactivity (PSR sort gate) |
| --- | --- |
| QVQLVESGGGLVQAGGSLRLSCAASGRTFVSNDMGWYRQAPGKERELVATISSGASTYYADSVKGRFTISRDNAKITVYLQMNSLKPEDTAVYYCAAEVLVFGGGYDYWGQGTQVTVSS | low polyreactivity |
| QVQLVESGGGLVQAGGSLRLSCAASGRTFVSNVMGWYRQAPGKERELVAAINWSGDSTYYADSVKGRFTISRDNAKNTVYLQMNSLKPEDTAVYYCARRNPLGGNEHDYWGQGTQVTVSS | low polyreactivity |
| QVQLVESGGGLVQAGGSLRLSCAASGRTFVSYTMGWYRQAPGKERELVAAISSGGSTTYADSVKGRFTISRDNAKNTVYLQMNSLKPEDTAVYYCNARYGWSYWSKYDYWGQGTQVTVSS | high polyreactivity |
| QVQLVESGGGLVQAGGSLRLSCAASGRTFVSYVMGLYRQAPGKERELVAAITWRGGSTYYADSVKGRFTISRDNAKNTVYLQMNSLKPEDTAVYYCNADYRYIWTYWGWTIYDYWGQGTQVTVSS | high polyreactivity |
| QVQLVESGGGLVQAGGSLRLSCAASGRTFVTNAMGWYRPAPGKERELVPAISSNGGSTYYADSVKGRFTISRDTAKNTVYLQMNSLKPEDTAVYYCNAEGQPLYWWDHGNYWGQGTQVTVSS | low polyreactivity |
| QVQLVESGGGLVQAGGSLRLSCAASGRTFVTYAMGWYRQAPGKERELVAGIRRGGSTYYADSVKGRFTISRDNAKNTVYLQMNSLKPDDPAVYDCAKTFYAHRAYTSYTARPYDYWGQGTQVTVSS | high polyreactivity |
| QVQLVESGGGLVQAGGSLRLSCAASGRTFVTYAMGWYRQAPGKERELVAVITNGGGTYYADSVKGRFTISRDNAKNTVYLQMNSLKPEDTALYYCNNDRYGLRRWVYSYLGGYDYWGQGTQVTVSS | low polyreactivity |
| QVQLVESGGGLVQAGGSLRLSCAASGRTFVTYVMGWYRQAPGKEREFVAAIRWSGGRTYYADSVKGRFTISRDNAKNTVYLQMNSLKPEDTAVYYCAAVYYDRSYRYEYWGQGTQVTVSS | high polyreactivity |
| QVQLVESGGGLVQAGGSLRLSCAASGRTFVYNAMGWYRQAPGKERELVAAIDGGGDRTYYADSVKGRFTISRDNAKNTVYLQMTSLNPEDTAVYYCARDPGDTYYYSYPEGDYWGQGTQVTVSS | low polyreactivity |
| QVQLVESGGGLVQAGGSLRLSCAASGRTFVYYAMGWYRQAPGKERELVASISSNGGTYYADSVKGRFTISRDNAKNTVYLQMNSLKPEDTAVYYCNAKRVARYQYGASYNYWGQGTQVTVSS | high polyreactivity |
| QVQLVESGGGLVQAGGSLRLSCAASGRTFVYYAMGWYRQAPGKERELVATITRSGGSTYYADSVKGRFTISRDNAKNTVYLQMNSLKPEDTAVYYCAVLYWRPGYDYWGQGTQVTVSS | high polyreactivity |
| QVQLVESGGGLVQAGGSLRLSCAASGRTFVYYAMGWYRQAPGTERELVAAISTGGSTNYADSVKGRFTISRDNAKNSVYLQMNSLKPEDTAVYYCAAQYYISISKYDYWGQGTQVTVSS | low polyreactivity |
| QVQLVESGGGLVQAGGSLRLSCAASGRTFVYYAMVWSRQAPGKEREFVAAISRSGGRTSYADSVKGRFTISRDNAKNTVYLQMNSLKPEDTAVYYCAAENRTQPTSREYYWGQGNQVTVSS | high polyreactivity |
| QVQLVESGGGLVQAGGSLRLSCAASGRTFVYYTRGWYRPAPGKERELVAAISWNGDDTYYADSVKGRFTISRDNAKNTVYLQMNSLKPEDTAVYYCAKESYTDYDTYYYWGQGTQVTVSS | low polyreactivity |
| QVQLVESGGGLVQAGGSLRLSCAASGRTFVYYVMGWYRQAPGKERELVAGISRGGSTDYADSVKGRFTISRDNAKNTVYLQMNSLKPEDTAVYYCNRLLRRHLYIFYYWGQGTQVTVSS | high polyreactivity |
| QVQLVESGGGLVQAGGSLRLSCAASGRTFWGYAMGWYRPAPGKERELVAAISSGGDTTYADSVKGRFTISRDNAKNTVYLQMNSLKPEDTAVFYCAADRWYSRYTRYGYWGQGTQVTVSS | low polyreactivity |
| QVQLVESGGGLVQAGGSLRLSCAASGRTFWNYAMGWYRQAPGKERELVAVIRFSDGSTYYADSVKGRFTISRDNAKNTVYLQMKSLKPEDTAVYYCGAKGQRRWGSGFDYWGQGTQVTVSS | low polyreactivity |
| QVQLVESGGGLVQAGGSLRLSCAASGRTFWPNVMGWYRQAPGKERELVAALTWGDASTYYADSVKGRFTISRDNAKYTVYLQMNSLKPEDTAVYYCAASDYRRTYDYWGQGTQVTVSS | low polyreactivity |
| QVQLVESGGGLVQAGGSLRLSCAASGRTFWPYAMGWYRQAPGKERELVAAITSDGSTTYADSVTGRFTISRDNAKNTVYLQMNSLTPEDTAVYYCAAYGYYYDQTIPMDYWGQGTQVTVSS | low polyreactivity |
| QVQLVESGGGLVQAGGSLRLSCAASGRTFWRNAMGWYRPAPGKERELVAVISVRGSSTSYADSVKGRFTISRDNAKNNVYFQMNILKPEDTGVYYCAAGRRYRSVGYGYWGQGTQLTVSS | high polyreactivity |
| QVQLVESGGGLVQAGGSLRLSCAASGRTFWRNAMGWYRQAPGKERELVAAISRGASTNYADSVKGRYTISRDNAKNTVYLQMNSLKPEDTAFYYCAARYYYRYNYWGQGTQVTVSS | high polyreactivity |
| QVQLVESGGGLVQAGGSLRLSCAASGRTFWRNAMGWYRQAPGKERELVAAISRGGSTKYADSVKGRFTISRDNAKNTVYLQMNSLKPEDTAVYYCAAATPGRYGYWGQGTQVTVSS | high polyreactivity |
| QVQLVESGGGLVQAGGSLRLSCAASGRTFWRYVMGWYRQAPGKERELVASITRSGGTTNYADSVKGRFTISRDIAKNTVYLQMNSLKPEDTAVYYCNARTVYSWSREYNYWGQGTQVTVSS | high polyreactivity |
| QVQLVESGGGLVQAGGSLRLSCAASGRTFWSYAMGWYRQAPGKERELVAAINSGGSTYYADSVKGRFTISRDNAKNTVYLQMNSLKPEDTAVYYFAADTWYGFDWGQGTQVTVSS | high polyreactivity |
| QVQLVESGGGLVQAGGSLRLSCAASGRTFWTYAMGWYRQAPGKERELVASISKSGGSTYADSVKGRFTISRDNAKNTVYLQMNSLKPEDTAVYVCAAYPYFSKGWGWYPYDYWGQGTQVTVSS | low polyreactivity |
| QVQLVESGGGLVQAGGSLRLSCAASGRTFWVYAMGWYRQAPGKERELVAAINTGGSTTYADSVKGRFTISRDNAKNTVYLQMNSLKPEDTAVYYCAADTWWYGKYDYWGQGTQVTVSS | low polyreactivity |
| QVQLVESGGGLVQAGGSLRLSCAASGRTFWVYAMGWYRQAPGKERELVAAISWRAGSTYYADSVKGRFTISRDNAKNTVYLLMNSLKPEVTAVYYCAAETYTTLDYWGQGTQVTVSS | high polyreactivity |
| QVQLVESGGGLVQAGGSLRLSCAASGRTFWVYAMGWYRQAPGKERELVASISWSVGSTYYADSVKGRFTISRDNAKNTVYLQMNSLKPEDTAVYYCAVDPATNVEGDYWGQGTQVTVSS | low polyreactivity |
| QVQLVESGGGLVQAGGSLRLSCAASGRTFWYYAMGWYRPAPGKERELVATITGGARTTYADSVKGRFTISRDNAKNTVYLQMNSLKPEDTAVYYCARARNSVKRGYYYWGQGTQVTVSS | high polyreactivity |
| QVQLVESGGGLVQAGGSLRLSCAASGRTFWYYAMGWYRQAPGKEREFVAAISYSGDGTYYADSVKGRFTISRDNAKNTVYLQMNSLKPEDTAVYYCAAEWYDPTLPTAWSEYEYWGQGTQVTVSS | high polyreactivity |
